Measurements published in the RNAGym collection of RNA variant scans (doi:10.7554/elife.80360).

B1: CPEB3 Ribozyme (parent)
chain: GGGGGCCACAGCAGAAGCGUUCACGUCGCGGCCCCUGUCAGAUUCUGGUGAAUCUGCGAAUUCUGCUGU

Variants of: B1
Experiment: self-cleavage, relative activity (ratio to wild type); higher = more cleavage; co-transcriptional

Row | Variant | self-cleavage
1 | UGGGGCCACAGCAGAAGCGUUCACGUCGCGGCCCCUGUCAGAUUCUGGUGAAUCUGCGAAUUCUGCAGU [G1U U67A] | 0.167
2 | UGGGGCCACAGCAGAAGCGUUCACGUCGCGGCCCCUGUCAGAUUCUGGUGAAUCUGCGAAUUCUGCCGU [G1U U67C] | 0.0935
3 | UGGGGCCACAGCAGAAGCGUUCACGUCGCGGCCCCUGUCAGAUUCUGGUGAAUCUGCGAAUUCUGCGGU [G1U U67G] | 0.204
4 | GAGGGCCACAGCAGAAGCGUUCACGUCGCGGCCCCUGUCAGAUUCUGGUGAGUCUGCGAAUUCUGCUGU [G2A A52G] | 0.242
5 | GAGGGCCACAGCAGAAGCGUUCACGUCGCGGCCCCUGUCAGAUUCUGGUGAUUCUGCGAAUUCUGCUGU [G2A A52U] | 0.12
6 | UGGGGCCACAGCAGAAGCGUUCACGUCGCGGCCCCUGUCAGAUUCUGGUGAAUCUGCGAAUUCUGCUGG [G1U U69G] | 0.265
7 | UGGGGCCACAGCAGAAGCGUUCACGUCGCGGCCCCUGUCAGAUUCUGGUGAAUCUGCGAAUUCUGCUGA [G1U U69A] | 0.194
8 | GAGGGCCACAGCGGAAGCGUUCACGUCGCGGCCCCUGUCAGAUUCUGGUGAAUCUGCGAAUUCUGCUGU [G2A A13G] | 0.129
9 | GAGGGCCACAGCCGAAGCGUUCACGUCGCGGCCCCUGUCAGAUUCUGGUGAAUCUGCGAAUUCUGCUGU [G2A A13C] | 0.109
10 | GAGGGCCACAGCAGAAGCGUUCACGUCGCGGCCCCUGUCUGAUUCUGGUGAAUCUGCGAAUUCUGCUGU [G2A A40U] | 0.0585
11 | GAGGGCCACAGCAGAAGCGUUCACGUCGCGGCCCCUGUCAGAUUCUGGUGAAUCUGCGGAUUCUGCUGU [G2A A59G] | 0.129
12 | GAGGGCCACAGCAGAAGCGUUCACGUCGCGGCCCCUGUCAGAUUCUGGUGAAUCUGCGCAUUCUGCUGU [G2A A59C] | 0.0548
13 | GAGGGCCACAGCAGAAGCGUUCACGUCGCGGCCCCUGUCAGAUUCUGGUGAAUCUGCGUAUUCUGCUGU [G2A A59U] | 0.0616
14 | GAGGGCCAUAGCAGAAGCGUUCACGUCGCGGCCCCUGUCAGAUUCUGGUGAAUCUGCGAAUUCUGCUGU [G2A C9U] | 0.493
15 | GAGGGCCAGAGCAGAAGCGUUCACGUCGCGGCCCCUGUCAGAUUCUGGUGAAUCUGCGAAUUCUGCUGU [G2A C9G] | 0.411
16 | GAGGGCCAAAGCAGAAGCGUUCACGUCGCGGCCCCUGUCAGAUUCUGGUGAAUCUGCGAAUUCUGCUGU [G2A C9A] | 0.435
17 | GAGGGCCACAGGAGAAGCGUUCACGUCGCGGCCCCUGUCAGAUUCUGGUGAAUCUGCGAAUUCUGCUGU [G2A C12G] | 0.123
18 | UGGGGCCACAGCAGAAGCGUUCACGUCGCGGCCCCUGUCAGAUUCUGGUGAAUCUGCGAAUUCGGCUGU [G1U U64G] | 0.117
19 | GAGGGCCACAGCAGUAGCGUUCACGUCGCGGCCCCUGUCAGAUUCUGGUGAAUCUGCGAAUUCUGCUGU [G2A A15U] | 0.0881
20 | GAGGGCCACAGCAGCAGCGUUCACGUCGCGGCCCCUGUCAGAUUCUGGUGAAUCUGCGAAUUCUGCUGU [G2A A15C] | 0.0708

Row | Variant | self-cleavage
21 | GAGGGCCACAGCAGAUGCGUUCACGUCGCGGCCCCUGUCAGAUUCUGGUGAAUCUGCGAAUUCUGCUGU [G2A A16U] | 0.1
22 | GAGGGCAACAGCAGAAGCGUUCACGUCGCGGCCCCUGUCAGAUUCUGGUGAAUCUGCGAAUUCUGCUGU [G2A C7A] | 0.0557
23 | GAGGGCUACAGCAGAAGCGUUCACGUCGCGGCCCCUGUCAGAUUCUGGUGAAUCUGCGAAUUCUGCUGU [G2A C7U] | 0.0501
24 | GAGGGCCACAGCAGAAGCGUUCCCGUCGCGGCCCCUGUCAGAUUCUGGUGAAUCUGCGAAUUCUGCUGU [G2A A23C] | 0.111
25 | GAGGGCCACAGCAGAAGCGUUCGCGUCGCGGCCCCUGUCAGAUUCUGGUGAAUCUGCGAAUUCUGCUGU [G2A A23G] | 0.15
26 | GAGGGACACAGCAGAAGCGUUCACGUCGCGGCCCCUGUCAGAUUCUGGUGAAUCUGCGAAUUCUGCUGU [G2A C6A] | 0.044
27 | GAGGGUCACAGCAGAAGCGUUCACGUCGCGGCCCCUGUCAGAUUCUGGUGAAUCUGCGAAUUCUGCUGU [G2A C6U] | 0.0868
28 | GAGGGGCACAGCAGAAGCGUUCACGUCGCGGCCCCUGUCAGAUUCUGGUGAAUCUGCGAAUUCUGCUGU [G2A C6G] | 0.0574
29 | GAGGGCCACAGCAGAAGCGUUCACGUCGCGGCCCCUGUCAGAUUCUGGUGAAUCUGCGACUUCUGCUGU [G2A A60C] | 0.0397
30 | GAGGGCCACAGCAGAAGCGUUCACGUCGCGGCCCCUGUCAGAUUCUGGUGAAUCUGCGAAUUCUGCUGU [G2A] | 0.216
31 | GAGGGCCACGGCAGAAGCGUUCACGUCGCGGCCCCUGUCAGAUUCUGGUGAAUCUGCGAAUUCUGCUGU [G2A A10G] | 0.201
32 | GAGGGCCACCGCAGAAGCGUUCACGUCGCGGCCCCUGUCAGAUUCUGGUGAAUCUGCGAAUUCUGCUGU [G2A A10C] | 0.259
33 | GAGGGCCACAGCAGAAGCGUUCACGUCGCGGCCCCUGUCAGAUUCUGGUGCAUCUGCGAAUUCUGCUGU [G2A A51C] | 0.0717
34 | GAGGGCCACAGCAGAAGCGUUCACGUCGCGGCCCCUGUCAGAUUCUGGUGUAUCUGCGAAUUCUGCUGU [G2A A51U] | 0.233
35 | GAGGGCCACAGCAGAAGCGUUCACGUCGCGGCCCCUGUCAGAUUCUGGUGGAUCUGCGAAUUCUGCUGU [G2A A51G] | 0.158
36 | GAGGGCCACAGCAGAAGCGUUCACGUCGCGGCCCCUGUCAGUUUCUGGUGAAUCUGCGAAUUCUGCUGU [G2A A42U] | 0.0966
37 | GAGGGCCACAGCAGAAGCGUUCACGUCGCGGCCCCUGUCAGCUUCUGGUGAAUCUGCGAAUUCUGCUGU [G2A A42C] | 0.0844
38 | GAGGGCCUCAGCAGAAGCGUUCACGUCGCGGCCCCUGUCAGAUUCUGGUGAAUCUGCGAAUUCUGCUGU [G2A A8U] | 0.199
39 | GAGGGCCGCAGCAGAAGCGUUCACGUCGCGGCCCCUGUCAGAUUCUGGUGAAUCUGCGAAUUCUGCUGU [G2A A8G] | 0.105
